Results taken from patent US20170056486A1 (IMMATICS BIOTECHNOLOGIES, published 2017).

B1: FLGDYVENL (peptide)
peptide: FLGDYVENL
B2: KTLDVFNIIL (peptide)
peptide: KTLDVFNIIL
B3: GVLKVFLENV (peptide)
peptide: GVLKVFLENV
B4: PLWGKVFYL (peptide)
peptide: PLWGKVFYL
B5: SLLSHVIVA (peptide)
peptide: SLLSHVIVA
B6: GLITVDIAL (peptide)
peptide: GLITVDIAL
B7: SIGDIFLKY (peptide)
peptide: SIGDIFLKY
B8: SLLPLVWKI (peptide)
peptide: SLLPLVWKI
B9: KVFGDLDQV (peptide)
peptide: KVFGDLDQV
B10: ILDNVKNLL (peptide)
peptide: ILDNVKNLL
B11: LLLDGDFTL (peptide)
peptide: LLLDGDFTL
B12: TLYSMDLMKV (peptide)
peptide: TLYSMDLMKV
B13: LLWGHPRVA (peptide)
peptide: LLWGHPRVA
B14: ALVSGGVAQA (peptide)
peptide: ALVSGGVAQA
B15: ELLSSIFFL (peptide)
peptide: ELLSSIFFL
B16: FLDPAQRDL (peptide)
peptide: FLDPAQRDL
B17: YVLNEEDLQKV (peptide)
peptide: YVLNEEDLQKV
B18: AAAAKVPEV (peptide)
peptide: AAAAKVPEV
B19: SLFGQEVYC (peptide)
peptide: SLFGQEVYC
B20: GIYDGILHSI (peptide)
peptide: GIYDGILHSI
B21: VLSPFILTL (peptide)
peptide: VLSPFILTL
B22: VLGPTPELV (peptide)
peptide: VLGPTPELV
B23: SLFNQEVQI (peptide)
peptide: SLFNQEVQI
B24: KLGPFLLNA (peptide)
peptide: KLGPFLLNA
B25: GLFSQHFNL (peptide)
peptide: GLFSQHFNL
notes: also called DNMT3B-001
B26: ELAEIVFKV (peptide)
peptide: ELAEIVFKV
B27: SLWFKPEEL (peptide)
peptide: SLWFKPEEL
B28: ALDGHLYAI (peptide)
peptide: ALDGHLYAI
B29: ILADEAFFSV (peptide)
peptide: ILADEAFFSV
B30: FINPKGNWLL (peptide)
peptide: FINPKGNWLL
B31: GRADALRVL (peptide)
peptide: GRADALRVL
B32: ILLDESNFNHFL (peptide)
peptide: ILLDESNFNHFL
B33: YLTEVFLHVV (peptide)
peptide: YLTEVFLHVV
B34: IVLSTIASV (peptide)
peptide: IVLSTIASV
B35: KVDGVVIQL (peptide)
peptide: KVDGVVIQL
B36: FLWPKEVEL (peptide)
peptide: FLWPKEVEL
B37: ELLEYLPQL (peptide)
peptide: ELLEYLPQL
B38: ILLNTEDLASL (peptide)
peptide: ILLNTEDLASL
B39: TLCNKTFTA (peptide)
peptide: TLCNKTFTA
B40: ALMAVVSGL (peptide)
peptide: ALMAVVSGL
B41: FLEEEITRV (peptide)
peptide: FLEEEITRV
B42: YLVAHNLLL (peptide)
peptide: YLVAHNLLL
B43: KLDGICWQV (peptide)
peptide: KLDGICWQV
B44: FVLPLVVTL (peptide)
peptide: FVLPLVVTL
B45: LLDESKLTL (peptide)
peptide: LLDESKLTL
B46: TLLGKQVTL (peptide)
peptide: TLLGKQVTL
B47: GMIGFQVLL (peptide)
peptide: GMIGFQVLL
B48: ILSVVNSQL (peptide)
peptide: ILSVVNSQL
notes: also called KIAA0226L-002
B49: FITDFYTTV (peptide)
peptide: FITDFYTTV
B50: VLRDNIQGI (peptide)
peptide: VLRDNIQGI
B51: SLAKHGIVAL (peptide)
peptide: SLAKHGIVAL
B52: ALYGKLLKL (peptide)
peptide: ALYGKLLKL
B53: GTFLEGVAK (peptide)
peptide: GTFLEGVAK
B54: LLWAGPVTA (peptide)
peptide: LLWAGPVTA
B55: ILHEHHIFL (peptide)
peptide: ILHEHHIFL
B56: AIWKELISL (peptide)
peptide: AIWKELISL
B57: SLLALPQDLQA (peptide)
peptide: SLLALPQDLQA
B58: KVLGKIEKV (peptide)
peptide: KVLGKIEKV
B59: TLDEYLTYL (peptide)
peptide: TLDEYLTYL
B60: TLLPTVLTL (peptide)
peptide: TLLPTVLTL
B61: ALINDILGELVKL (peptide)
peptide: ALINDILGELVKL
B62: FLWNGEDSAL (peptide)
peptide: FLWNGEDSAL
B63: ALTKILAEL (peptide)
peptide: ALTKILAEL
B64: STLDGSLHAV (peptide)
peptide: STLDGSLHAV
B65: LLLPLLPPLSPSLG (peptide)
peptide: LLLPLLPPLSPSLG
B66: KMQEDLVTL (peptide)
peptide: KMQEDLVTL
B67: GLYQAQVNL (peptide)
peptide: GLYQAQVNL
B68: SLLTQPIFL (peptide)
peptide: SLLTQPIFL

target: T1, HLA-A*02 (human); test: UV-exchange ELISA (anti-b2m); yield 20%-49%
T1 construct: Peptide-receptive MHC monomer made by UV cleavage of a UV-sensitive ligand and captured on streptavidin plates; also called HLA-A*02 MHC class I molecule; peptide-receptive MHC
Source text: (§1) Candidate peptides for T cell based therapies according to the present invention were further tested for their MHC binding capacity (affinity). The individual peptide-MHC complexes were produced by UV-ligand exchange, where a UV-sensitive peptide is cleaved upon UV-irradiation, and exchanged with the peptide of interest as analyzed. Only peptide candidates that can effectively bind and stabilize the peptide-receptive MHC molecules prevent dissociation of the MHC complexes. To determine the yield of the exchange reaction, an ELISA was performed based on the detection of the light chain (β2m) of stabilized MHC complexes. The assay was performed as generally described in Rodenko et al. (Rodenko et al., 2006).
(§2) 96 well MAXISorp plates (NUNC) were coated over night with 2 ug/ml streptavidin in PBS at room temperature, washed 4× and blocked for 1 h at 37° C. in 2% BSA containing blocking buffer. […] Peptide-MHC monomers of the UV-exchange reaction were diluted 100 fold in blocking buffer. Samples were incubated for 1 h at 37° C., washed four times, incubated with 2 ug/ml HRP conjugated anti-β2m for 1 h at 37° C., washed again and detected with TMB solution that is stopped with […]. Absorption was measured at 450 nm.

| Binder | peptide exchange yield [%] |
| --- | --- |
| B1 | 20 to 49 |
| B2 | 20 to 49 |
| B3 | 20 to 49 |
| B4 | 20 to 49 |

target: T1, HLA-A*02; test: UV-exchange ELISA (anti-b2m); yield 50%-75%
Source text: as §1, §2

| Binder | peptide exchange yield [%] |
| --- | --- |
| B5 | 50 to 75 |
| B6 | 50 to 75 |
| B7 | 50 to 75 |
| B8 | 50 to 75 |
| B9 | 50 to 75 |
| B10 | 50 to 75 |
| B11 | 50 to 75 |
| B12 | 50 to 75 |
| B13 | 50 to 75 |
| B14 | 50 to 75 |
| B15 | 50 to 75 |
| B16 | 50 to 75 |
| B17 | 50 to 75 |
| B18 | 50 to 75 |
| B19 | 50 to 75 |
| B20 | 50 to 75 |
| B21 | 50 to 75 |
| B22 | 50 to 75 |
| B23 | 50 to 75 |
| B24 | 50 to 75 |
| B25 | 50 to 75 |
| B26 | 50 to 75 |

| Binder | peptide exchange yield [%] |
| --- | --- |
| B27 | 50 to 75 |
| B28 | 50 to 75 |
| B29 | 50 to 75 |
| B30 | 50 to 75 |
| B31 | 50 to 75 |
| B32 | 50 to 75 |
| B33 | 50 to 75 |
| B34 | 50 to 75 |
| B35 | 50 to 75 |
| B36 | 50 to 75 |
| B37 | 50 to 75 |
| B38 | 50 to 75 |
| B39 | 50 to 75 |
| B40 | 50 to 75 |
| B41 | 50 to 75 |
| B42 | 50 to 75 |
| B43 | 50 to 75 |
| B44 | 50 to 75 |
| B45 | 50 to 75 |
| B46 | 50 to 75 |
| B47 | 50 to 75 |
| B48 | 50 to 75 |

| Binder | peptide exchange yield [%] |
| --- | --- |
| B49 | 50 to 75 |
| B50 | 50 to 75 |
| B51 | 50 to 75 |
| B52 | 50 to 75 |
| B53 | 50 to 75 |
| B54 | 50 to 75 |
| B55 | 50 to 75 |
| B56 | 50 to 75 |
| B57 | 50 to 75 |
| B58 | 50 to 75 |
| B59 | 50 to 75 |
| B60 | 50 to 75 |
| B61 | 50 to 75 |
| B62 | 50 to 75 |
| B63 | 50 to 75 |
| B64 | 50 to 75 |
| B65 | 50 to 75 |
| B66 | 50 to 75 |
| B67 | 50 to 75 |
| B68 | 50 to 75 |
